In patent publication US20110318357A1:

Target: Shiga toxin type 2 (Stx2) (Escherichia coli) (UniProt P09385)
Assay: cell-based or functional assay

For monoclonal antibody 11E10, the percent neutralization of cytotoxicity for Vero cells was 65%.
